Laboratory results taken from patent US20200392225A1.
Positions count from the first letter of the chain named.

T1: human NPR3 (counter target) (human) (UniProt P17342)
T1 sequence (looked up): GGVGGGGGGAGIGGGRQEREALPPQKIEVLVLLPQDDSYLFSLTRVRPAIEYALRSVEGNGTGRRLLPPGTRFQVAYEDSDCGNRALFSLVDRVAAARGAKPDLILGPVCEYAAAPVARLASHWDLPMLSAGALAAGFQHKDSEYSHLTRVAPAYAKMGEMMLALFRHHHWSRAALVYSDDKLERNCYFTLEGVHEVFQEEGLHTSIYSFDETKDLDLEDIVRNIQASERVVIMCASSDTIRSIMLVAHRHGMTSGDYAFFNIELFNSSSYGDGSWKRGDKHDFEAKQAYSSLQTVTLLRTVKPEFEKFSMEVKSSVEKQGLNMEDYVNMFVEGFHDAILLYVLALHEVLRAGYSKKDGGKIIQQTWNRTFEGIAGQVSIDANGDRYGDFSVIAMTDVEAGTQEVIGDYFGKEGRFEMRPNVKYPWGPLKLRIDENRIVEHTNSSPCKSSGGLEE

T2: rat NPR1, recombinant antigen (rat) (UniProt P18910)
T2 sequence: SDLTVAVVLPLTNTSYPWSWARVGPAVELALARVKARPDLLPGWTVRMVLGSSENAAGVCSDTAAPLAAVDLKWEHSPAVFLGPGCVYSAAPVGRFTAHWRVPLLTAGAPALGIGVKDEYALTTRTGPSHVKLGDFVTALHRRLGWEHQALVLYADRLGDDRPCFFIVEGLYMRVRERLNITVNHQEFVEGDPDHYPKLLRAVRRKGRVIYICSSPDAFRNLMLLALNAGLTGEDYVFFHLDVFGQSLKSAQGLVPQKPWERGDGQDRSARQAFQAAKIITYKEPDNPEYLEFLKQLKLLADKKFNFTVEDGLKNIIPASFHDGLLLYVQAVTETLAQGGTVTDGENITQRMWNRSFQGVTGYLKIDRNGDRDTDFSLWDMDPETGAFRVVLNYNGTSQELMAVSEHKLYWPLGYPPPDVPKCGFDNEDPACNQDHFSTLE

T3: human NPR3 in the presence of ANP (human) (UniProt P17342)
T3 sequence (looked up): T1 sequence (looked up)
T3 sequence (peptide, looked up): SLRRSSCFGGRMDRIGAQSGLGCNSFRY

B1: YY06 IgG (YY06_LALA) (antibody, V domains shown)
VH: EVQLLESGGGLVQPGGSLRLSCAASGFTFSSYAISWVRQAPGKGLEWVSAISGSGGSTYYAESVKGRFTISRDNSKNTLYLQMNSLRAEDTAVYYCARPYLGDRRSYGFDHWGQGTLVTVSS
VL: QSALTQPASVSGSPGQSITISCTGTSSDVGSYNLVSWYQQHPGKAPKLMIYEGSKRPSGVSNRFSGSKSGNTASLTISGLQAEDEADYYCSSYGFHIVVVVFGGGTKLTVLG
B2: YY05 IgG (YY05_LALA) (antibody, V domains shown)
VH: EVQLVQSGAEVKKPGESLKISCKGSGYSFTSYWISWVRQMPGKGLEWMGIIYPGTSYTRYSPSFQGQVTISADKSISTAYLQWSSLKASDTAMYYCARGAVAGQLGFDHWGQGTLVTVSS
VL: QSVLTQPPSVSGAPGQRVTISCTGSSSNIGAGYDVHWYQQLPGTAPKLLIYGNSNRPSGVPDRFSGSKSGTSASLAITGLQAEDEADYYCQSYYTSSHGPVFGGGTKLTVLG
B3: YY07 IgG (YY07_LALA) (antibody, V domains shown)
VH: B2 VH with A100S, V101L, A102P, Q104L
VL: B2 VL with S58N, Y94D, T95S, S96P, S97T, H98S, G99S, P100S
B4: WW06 IgG (WW06_LALA) (antibody, V domains shown)
VH: QVQLVQSGAEVKKPGESLKISCKGSGYSFTSYWIAWVRQMPGKGLEWMGRIDPDNSYTRYSPSFQGQVTISADKSISTAYLQWSSLKASDTAMYYCARWLSPGYALGEQPAGMDHWGQGTLVTVSS
VL: DIVLTQPPSVSGAPGQRVTISCTGSSSNIGAGYAVHWYQQLPGTAPKLLIYSNNKRPSGVPDRFSGSKSGTSASLAITGLQAEDEADYYCQSYDLQKSSRVFGGGTKLTVLG

Experiments:
[1] = target: T1, human NPR3 (counter target) (human); experiment: ELISA, 1 uM IgG
[2] = target: T2, rat NPR1, recombinant antigen (rat); experiment: ELISA, 1 uM IgG
[3] = target: human NPR1 W74R mutant in the presence of ANP (human) (UniProt P01160); experiment: ELISA, 1 uM IgG, +100 nM ANP
[4] = target: T3, human NPR3 in the presence of ANP (human); experiment: ELISA, 1 uM IgG, +100 nM ANP
[5] = target: human NPR1 W74R mutant in the presence of ANP (human) (UniProt P01160); experiment: ELISA, IgG titrated on the antigen with 250 fold molar excess of ANP [cont.]
[6] = target: human NPR1 W74R mutant in the presence of ANP (human) (UniProt P01160); experiment: ELISA, IgG titration, +100 nM ANP
[7] = target: human NPR1 expressed on CHO-K1 cells in the presence of ANP (human) (UniProt P01160); experiment: flow cytometry, 2 uM IgG, +100 nM ANP

Row | Binder | ELISA IgG binding at 1 uM IgG (unit not given) [1] | ELISA IgG binding at 1 uM IgG (unit not given) [2] | ELISA IgG binding at 1 uM IgG (unit not given) [3] | ELISA IgG binding at 1 uM IgG (unit not given) [4] | EC50 (read off the curve) [5] | EC50 [6] | flow cytometry S/BG [7]
1 | B1 | 6 | 3 | 86 | 6 | 20 nM |  | 
2 | B2 | 7 |  | 23 | 4 |  |  | 
3 | B3 |  |  | 20 | 5 |  |  | 
4 | B4 |  |  |  |  |  | 0.8 nM | 1.1 S/BG
